What all share (assay): pull-down; GST-Rab11 proteins immobilized on glutathione-Sepharose beads; lysates of cells expressing GFP-SPIN90 in buffer B (25 mM HEPES, 100 mM NaCl, 5 mM MgCl2, 1% NP-40, 10% glycerol); 2 h at 4 °C; immunoblot with anti-GFP
A general note: A western blot detects proteins with antibodies after separation by electrophoresis.

Assay [1] concerns the target GST-Rab11 WT (human) (UniProt P62491).
The target of assay [2] is GST-Rab11 Q70L (human) (UniProt P62491).
In assay [3] the target is GST-Rab11 S25N (human) (UniProt P62491).

In the case of “GFP-SPIN90 C-term (C) (domain or fragment)”, the relative band intensity (normalized to GST-Rab11 WT with SPIN90 FL) stood at 1.8 in assay [1], 1.43 in assay [2] and 2.89 in assay [3].

The values are drawn from publication PMC9504172.
